T1: B3GNT2 (Homo sapiens, UniProt Q9NY97)
T1 construct: The respective ORFs of candidate genes [CD274 (NM_014143), MCL1 (NM_021960), JUNB (NM_002229), and B3GNT2 (NM_006577)] were synthesized; expressed in transfected cells; host or cells: A375 melanoma cells (lentiviral ORF overexpression)
T1 sequence (Q9NY97 1-397): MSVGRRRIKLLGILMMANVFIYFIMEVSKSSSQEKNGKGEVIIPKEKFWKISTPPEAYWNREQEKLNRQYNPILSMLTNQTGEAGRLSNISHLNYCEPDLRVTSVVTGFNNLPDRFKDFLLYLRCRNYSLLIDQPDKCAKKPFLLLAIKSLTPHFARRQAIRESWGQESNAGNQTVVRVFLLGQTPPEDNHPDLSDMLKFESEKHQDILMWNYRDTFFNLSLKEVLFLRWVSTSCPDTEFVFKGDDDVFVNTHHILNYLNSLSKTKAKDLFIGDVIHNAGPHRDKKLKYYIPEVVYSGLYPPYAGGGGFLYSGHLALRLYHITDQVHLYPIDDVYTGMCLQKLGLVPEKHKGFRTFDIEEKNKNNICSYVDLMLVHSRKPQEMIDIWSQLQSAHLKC


Biological target: T1, B3GNT2
Assay: Co-IP of FLAG-tagged B3GNT2 followed by mass spectrometry
Type: cell-based
Design: C-term IgG / C-term flag: unit not given here
Details: Co-IP followed by mass spectrometry of B3GNT2; for C-term flag / C-term IgG: C-term tag; for C-term flag / N-term FLAG: FLAG pull-down; for C-term IgG / N-term IgG: IgG pull-down; for N-term FLAG / N-term IgG: N-term tag
Procedure, shortened: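 FLAG-tagged B3GNT2 immunoprecipitated from cell lysate (HEPES, 1% Triton X-100, 150 mM NaCl) with anti-FLAG versus […], overnight at 4° C, then captured on Protein A/G magnetic beads for 4 h. Two biological replicates per condition. Peptides fractionated and analyzed by nano-LC on an Orbitrap Elite in data-dependent mode.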

| Molecule | C-term flag | C-term IgG | N-term FLAG | N-term IgG |
| --- | --- | --- | --- | --- |
| PUF60 (protein) MATATIALQVNGQQGGGSEPAAAAAVVAAGDKWKPPQGTDSIKMENGQSTAAKLGLPPLTPEQQEALQKAKKYAMEQSIKSVLVKQTIAHQQQQLTNLQMAAVTMGFGDPLSPLQSMAAQRQRALAIMCRVYVGSIYYELGEDTIRQAFAPFGPIKSIDMSWDSVTMKHKGFAFVEYEVPEAAQLALEQMNSVMLGGRNIKVGRPSNIGQAQPIIDQLAEEARAFNRIYVASVHQDLSDDDIKSVFEAFGKIKSCTLARDPTTGKHKGYGFIEYEKAQSSQDAVSSMNLFDLGGQYLRVGKAVTPPMPLLTPATPGGLPPAAAVAAAAATAKITAQEAVAGAAVLGTLGTPGLVSPALTLAQPLGTLPQAVMAAQAPGVITGVTPARPPIPVTIPSVGVVNPILASPPTLGLLEPKKEKEEEELFPESERPEMLSEQEHMSISGSSARHMVMQKLLRKQESTVMVLRNMVDPKDIDDDLEGEVTEECGKFGAVNRVIIYQEKQGEEEDAEIIVKIFVEFSIASETHKAIQALNGRWFAGRKVVAEVYDQERFDNSDLSA | 6 | 5 | 6 | 5 |
| TM9SF1 (protein) PGVEGVTHYKAGDPVILYVNKVGPYHNPQETYHYYQLPVCCPEKIRHKSLSLGEVLDGDRMAESLYEIRFRENVEKRILCHMQLSSAQVEQLRQAIEELYYFEFVVDDLPIRGFVGYMEESGFLPHSHKIGLWTHLDFHLEFHGDRIIFANVSVRDVKPHSLDGLRPDEFLGLTHTYSVRWSETSVERRSDRRRGDDGGFFPRTLEIHWLSIINSMVLVFLLVGFVAVILMRVLRNDLARYNLDEETTSAGSGDDFDQGDNGWKIIHTDVFRFPPYRGLLCAVLGVGAQFLALGTGIIVMALLGMFNVHRHGAINSAAILLYALTCCISGYVSSHFYRQIGGERWVWNIILTTSLFSVPFFLTWSVVNSVHWANGSTQALPATTILLLLTVWLLVGFPLTVIGGIFGKNNASPFDAPCRTKNIAREIPPQPWYKSTVIHMTVGGFLPFRYPPFIPWLLLSGS | 4 | 0 | 0 | 0 |
| CPT1A (protein) AEAHQAVAFQFTVTPDGIDLRLSHEALRQIYLSGLHSWKKKFIRFKNGIITGVYPASPSSWLIVVVGVMTTMYAKIDPSLGIIAKINRTLETANCMSSQTKNVVSGVLFGTGLWVALIVTMRYSLKVLLSYHGWMFTEHGKMSRATKIWMGMVKIFSGRKPMLYSFQTSLPRLPVPAVKDTVNRYLQSVRPLMKEEDFKRMTALAQDFAVGLGPRLQWYLKLKSWWATNYVSDWWEEYIYLRGRGPLMVNSNYYAMDLLYILPTHIQAARAGNAIHAILLYRRKLDREEIKPIRLLGSTIPLCSAQWERMFNTSRIPGEETDTIQHMRDSKHIVVYHRGRYFKVWLYHDGRLLKPREMEQQMQRILDNTSEPQPGEARLAALTAGDRVPWARCRQAYFGRGKNKQSLDAVEKAAFFVTLDETEEGYRSEDPDTSMDSYAKSLLHGRCYDRWFDKSFTFVVFKNGKMGLNAEHSWADAPIVAHLWEYVMSIDSLQLGYAEDGHCKGDINPNIPYPTRLQWDIPGECQEVIETSLNTANLLANDVDFHSFPFVAFGKGIIKKCRTSPDAFVQLALQLAHYKDMGKFCLTYEASMTRLFREGRTETVRSCTTESCDFVRAMVDPAQTVEQRLKLFKLASEKHQHMYRLAMTGSGIDRHLFCLYVVSKYLAVESPFLKEVLSEPWRLSTSQTPQQQVELFDLENNPEYVSSGGGFGPVADDGYGVSYILVGENLINFHISSKFSCPETGIISQGPSSDT | 2 | 0 | 2 | 0 |
| HNRNPH1 (protein, UniProt P31943 1-449, looked up) Heterogeneous nuclear …: MMLGTEGGEGFVVKVRGLPWSCSADEVQRFFSDCKIQNGAQGIRFIYTREGRPSGEAFVELESEDEVKLALKKDRETMGHRYVEVFKSNNVEMDWVLKHTGPNSPDTANDGFVRLRGLPFGCSKEEIVQFFSGLEIVPNGITLPVDFQGRSTGEAFVQFASQEIAEKALKKHKERIGHRYIEIFKSSRAEVRTHYDPPRKLMAMQRPGPYDRPGAGRGYNSIGRGAGFERMRRGAYGGGYGGYDDYNGYNDGYGFGSDRFGRDLNYCFSGMSDHRYGDGGSTFQSTTGHCVHMRGLPYRATENDIYNFFSPLNPVRVHIEIGPDGRVTGEADVEFATHEDAVAAMSKDKANMQHRYVELFLNSTAGASGGAYEHRYVELFLNSTAGASGGAYGSQMMGGMGLSNQSSYGGPASQQLSGGYGGGYGGQSSMSGYDQVLQENSSDFQSNIA | 15 | 11 | 11 | 11 |
| COPA (protein) MLTKFETKSARVKGLSFHPKRPWILTSLHNGVIQLWDYRMCTLIDKFDEHDGPVRGIDFHKQQPLFVSGGDDYKIKVWNYKLRRCLFTLLGHLDYIRTTFFHHEYPWILSASDDQTIRVWNWQSRTCVCVLTGHNHYVMCAQFHPTEDLVVSASLDQTVRVWDISGLRKKNLSPGAVESDVRGITGVDLFGTTDAVVKHVLEGHDRGVNWAAFHPTMPLIVSGADDRQVKIWRMNESKAWEVDTCRGHYNNVSCAVFHPRQELILSNSEDKSIRVWDMSKRTGVQTFRRDHDRFWVLAAHPNLNLFAAGHDGGMIVFKLERERPAYAVHGNMLHYVKDRFLRQLDFNSSKDVAVMQLRSGSKFPVFNMSYNPAENAVLLCTRASNLENSTYDLYTIPKDADSQNPDAPEGKRSSGLTAVWVARNRFAVLDRMHSLLIKNLKNEITKKVQVPNCDEIFYAGTGNLLLRDADSITLFDVQQKRTLASVKISKVKYVIWSADMSHVALLAKHAIVICNRKLDALCNIHENIRVKSGAWDESGVFIYTTSNHIKYAVTTGDHGIIRTLDLPIYVTRVKGNNVYCLDRECRPRVLTIDPTEFKFKLALINRKYDEVLHMVRNAKLVGQSIIAYLQKKGYPEVALHFVKDEKTRFSLALECGNIEIALEAAKALDDKNCWEKLGEVALLQGNHQIVEMCYQRTKNFDKLSFLYLITGNLEKLRKMMKIAEIRKDMSGHYQNALYLGDVSERVRILKNCGQKSLAYLTAATHGLDEEAESLKETFDPEKETIPDIDPNAKLLQPPAPIMPLDTNWPLLTVSKGFFEGTIASKGKGGALAADIDIDTVGTEGWGEDAELQLDEDGFVEATEGLGDDALGKGQEEGGGWDVEEDLELPPELDISPGAAGGAEDGFFVPPTKGTSPTQIWCNNSQLPVDHILAGSFETAMRLLHDQVGVIQFGPYKQLFLQTYARGRTTYQALPCLPSMYGYPNRNWKDAGLKNGVPAVGLKLNDLIQRLQLCYQLTTVGKFEEAVEKFRSILLSVPLLVVDNKQEIAEAQQLITICREYIVGLSVETERKKLPKETLEQQKRICEMAAYFTHSNLQPVHMILVLRTALNLFFKLKNFKTAATFARRLLELGPKPEVAQQTRKILSACEKNPTDAYQLNYDMHNPFDICAASYRPIYRGKPVEKCPLSGACYSPEFKGQICRVTTVTEIGKDVIGLRISPLQFR | 2 | 0 | 2 | 0 |
| C1orf68 (protein) MCDQQKQPQFPPSCVKGSGLGAGQGSNGASVKCPVPCQTQTVCVTGPAPCPTQTYVKYQVPCQTQTYVKCPAPCQRTYVKYPTPCQTYVKCPAPCQTTYVKCPTPCQTYVKCPAPCQMTYIKSPAPCQTQTCYVQGASPCQSYYVQAPASGSTSQYCVTDPCSAPCSTSYCCLAPRTFGVSPLRRWIQRPQNCNTGSSGCCENSGSSGCCGSGGCGCSCGCGSSGCCCLGIIPMRSRGPACCDHEDDCCC | 2 | 4 | 13 | 0 |
| RBM14 (protein) MKIFVGNVDGADTTPEELAALFAPYGTVMSCAVMKQFAFVHMRENAGALRAIEALHGHELRPGRALVVEMSRPRPLNTWKIFVGNVSAACTSQELRSLFERRGRVIECDVVKDYAFVHMEKEADAKAAIAQLNGKEVKGKRINVELSTKGQKKGPGLAVQSGDKTKKPGAGDTAFPGTGGFSATFDYQQAFGNSTGGFDGQARQPTPPFFGRDRSPLRRSPPRASYVAPLTAQPATYRAQPSVSLGAAYRAQPSASLGVGYRTQPMTAQAASYRAQPSVSLGAPYRGQLASPSSQSAAASSLGPYGGAQPSASALSSYGGQAAAASSLNSYGAQGSSLASYGNQPSSYGAQAASSYGVRAAASSYNTQGAASSLGSYGAQAASYGAQSAASSLAYGAQAASYNAQPSASYNAQSAPYAAQQAASYSSQPAAYVAQPATAAAYASQPAAYAAQATTPMAGSYGAQPVVQTQLNSYGAQASMGLSGSYGAQSAAAATGSYGAAAAYGAQPSATLAAPYRTQSSASLAASYAAQQHPQAAASYRGQPGNAYDGAGQPSAAYLSMSQGAVANANSTPPPYERTRLSPPRASYDDPYKKAVAMSKRYGSDRRLAELSDYRRLSESQLSFRRSPTKSSLDYRRLPDAHSDYARYSGSYNDYLRAAQMHSGYQRRM | 2 | 0 | 3 | 4 |

— US20240261333A1, “NOVEL TARGETS FOR ENHANCING ANTI-TUMOR IMMUNITY” (THE BROAD INSTITUTE, INC., priority 2021, published 2024)
